# From patent US20100047245A1 (AbbVie / Abbott, published 2010)
# Where a chain is given by its changes, count along the chain named.
# B1: 1D4-Chim (antibody, human IgG1, V domains shown)
# VH: QVTLKESGPGILQPSQTLSLTCSFSGFSLRKSVMGVSWIRQPSGKGLEWLAHIYWDDDKYYNPSLKSRLTISKDPSRNQVFLKITSVDTADAATYYCTRRGIRSAMDYWGQGTSVTVSS
# VL: SVVMTQTPKFLLVSAGDRVTITCKASQSVSNDVAWYQQKPGQSPKLLIYYASNRYTGVPDRFTGSGYGTDFTFIISTVRAEDLAVYFCQQDYNSPWTFGGGTKLEIKR
# B2: 3G7-Chim (antibody, human IgG1, V domains shown)
# VH: QVQLQQSGAELMKPGASVKISCKATGYTFNDYWIEWVKQRPGHGLEWIGGFSHGSGSTNYNEKFKGKATFTADSSSNTAYMQLSSLTSEDSAVYYCARRRFRGMDYWGQGTSVTVSS
# VL: B1 VL with V2I, I74T, S76T, R79Q, N93S, T97S
# B3: 1A6-Chim (antibody, human IgG1, V domains shown)
# VH: QVTLKESGPGILKPSQTLSLTCSFSGFSLSTSGMGVSWIRQPSGKGLEWLAHIWWDGDNYYNPSLKSQLTISKDTSRNQVFLRIATVDTADTATYYCARRTRVNYAMDYWGQGTSVTVSS
# VL: B1 VL with Y36F, I74T, R79Q
# B4: 8E1-Chim (antibody, human IgG1, V domains shown)
# VH: EVKLVESGGGLVQPGGSRKLSCAASGFTFSDYGMVWVRQAPGKGLEWVASISSGSSNIYYADTVKGRFTISRDDPNNTLFLQMRSLRSEDTAMYYCARNPYWGQGTTLTVSS
# VL: DIVMTQSQKFMSTSVGDRVSVTCKASQNVGTNVAWYQQKPGQSPKGLIYSASHRYSGVPDRFAGSGSGTDFTLTISNVQSEDLAEYFCQQYNSYPLTFGGGTKLELKR
# Target: recombinant purified cyno IL-12 p70 (cynomolgus monkey)
# Test: cell-based or functional assay
# Chain of recombinant purified cyno IL-12 p70 (cynomolgus monkey) (P48095 23-328, chain 1 of 2): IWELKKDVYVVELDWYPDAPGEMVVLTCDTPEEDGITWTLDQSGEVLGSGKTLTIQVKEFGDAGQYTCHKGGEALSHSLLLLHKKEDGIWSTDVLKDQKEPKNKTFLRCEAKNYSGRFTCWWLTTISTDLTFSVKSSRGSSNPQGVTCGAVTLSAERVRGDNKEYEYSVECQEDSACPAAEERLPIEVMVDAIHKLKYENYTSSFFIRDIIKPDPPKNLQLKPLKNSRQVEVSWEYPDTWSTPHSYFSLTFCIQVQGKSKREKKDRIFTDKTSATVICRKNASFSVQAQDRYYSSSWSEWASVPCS
# Chain of recombinant purified cyno IL-12 p70 (cynomolgus monkey) (P48091 23-219, chain 2 of 2, further chain): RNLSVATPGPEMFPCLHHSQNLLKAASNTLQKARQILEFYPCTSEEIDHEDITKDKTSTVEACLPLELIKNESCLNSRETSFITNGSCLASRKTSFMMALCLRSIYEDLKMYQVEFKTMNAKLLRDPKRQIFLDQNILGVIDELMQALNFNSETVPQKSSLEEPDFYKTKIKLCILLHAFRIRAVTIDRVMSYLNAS
row,Binder,Average IC50 (nM) Cyno IL-12; PHA blast IFN-gamma induction assay [nM]
1,B1,0.07
2,B2,0.32
3,B3,0.02
4,B4,0.15
